A word on the EC50: it is the midpoint of the concentration-response curve.

In one test the target is T1, OPRM1-PK (Homo sapiens, UniProt P35372).
T1 construct: PK (beta-galactosidase ED); expressed in transfected cells; host or cells: U2OS
The experiment in a line: Arrestin-EA EFC agonist assay, U2OS cells expressing OPRM1-PK only. The settings on record: U2OS OPRM1-PK only. The test is classed as cell-based.

The target in a further test is T2, OPRM1-PK and PROKR2 (Homo sapiens, UniProt Q8NFJ6).
T2 construct: expressed in transfected cells; host or cells: U2OS
T2 sequence (Q8NFJ6 whole entry, species assumed): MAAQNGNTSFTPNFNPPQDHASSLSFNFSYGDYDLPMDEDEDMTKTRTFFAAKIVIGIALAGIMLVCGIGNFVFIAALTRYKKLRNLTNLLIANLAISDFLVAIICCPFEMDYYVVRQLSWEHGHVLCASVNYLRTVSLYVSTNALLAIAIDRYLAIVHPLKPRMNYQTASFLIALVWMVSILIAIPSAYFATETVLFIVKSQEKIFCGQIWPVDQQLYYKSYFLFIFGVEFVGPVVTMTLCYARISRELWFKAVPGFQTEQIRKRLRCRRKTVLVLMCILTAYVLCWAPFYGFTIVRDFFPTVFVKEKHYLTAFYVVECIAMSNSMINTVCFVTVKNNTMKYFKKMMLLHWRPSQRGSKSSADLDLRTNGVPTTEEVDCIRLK
Kind of test: Transactivation assay, U2OS cells co-expressing OPRM1-PK and PROKR2 (FIG. 14C). It is filed as cell-based.

T1 sequence (P35372 whole entry): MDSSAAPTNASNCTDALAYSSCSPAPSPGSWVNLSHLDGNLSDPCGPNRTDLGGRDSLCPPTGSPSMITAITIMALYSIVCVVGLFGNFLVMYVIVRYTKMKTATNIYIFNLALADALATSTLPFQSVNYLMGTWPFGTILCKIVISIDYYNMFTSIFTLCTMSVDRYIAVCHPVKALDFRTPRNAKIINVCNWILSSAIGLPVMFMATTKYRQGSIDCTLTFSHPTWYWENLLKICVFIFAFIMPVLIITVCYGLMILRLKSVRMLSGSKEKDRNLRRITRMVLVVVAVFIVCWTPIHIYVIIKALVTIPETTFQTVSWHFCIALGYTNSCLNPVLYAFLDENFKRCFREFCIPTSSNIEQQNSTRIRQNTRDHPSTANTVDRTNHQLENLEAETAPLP
Procedure for OPRM1-PK and PROKR2: For all assays, 10,000 cells per well were seeded in 20 μL media and incubated overnight in 1% Fetal Bovine Serum and appropriate basal media (F-12 or DMEM). For agonist assays, 5 μL compound was added to cells and incubated at Room Temp. […] Arrestin-EA complex formation with the GPCR was detected with 50% (v/v) of PathHunter Detection Reagent (Dx 93-0001, PathHunter reagents are available from DiscoveRx, Corp., Fremont, Calif.) (Lysis buffer active ingredient 2% CHAPS, Emerald II and Galacton star are from Applied Biosystems.) Data was read on Packard Victor 2 or PerkinElmer ViewLux readers and analyzed using GraphPad Prism 4.

B1: EG-VEGF: PROKR2 ligand, EG-VEGF/prokineticin (protein)
chain: AVITGACERDVQCGAGTCCAISLWLRGLRMCTPLGREGEECHPGSHKVPFFRKRKHHTCPCLPNLLCSRFPDGRYRCSMDLKNINF
Regarding B1, the EC50 with OPRM1-PK is 32.1 nM; in the test with OPRM1-PK and PROKR2 (FIG. 14C) it was 52.2 nM. Moreover, the HILLSLOPE with OPRM1-PK is 1.011; with OPRM1-PK and PROKR2 (FIG. 14C), 1.328. Besides, the BOTTOM with OPRM1-PK (curve fit, signal) is on record as 25.82; in the test with OPRM1-PK and PROKR2 (curve fit, signal, FIG. 14C) it was 294.3. In addition, the TOP was determined as 57.34 with OPRM1-PK (curve fit, signal); 9875 with OPRM1-PK and PROKR2 (curve fit, signal, FIG. 14C). The LOGEC50 in the test with OPRM1-PK (log of EC50, negative sign as printed) is reported as −7.493; with OPRM1-PK and PROKR2 (log of EC50, negative sign as printed, FIG. 14C), −7.282. Further, in the test with OPRM1-PK and PROKR2 (OPRM1-PK and PROKR2 coexpressed), the “transactivation response” value was “weak response”.
